{"source": "paper PMC8584237", "about": "“Helicobacter pylori Neutrophil-Activating Protein Directly Interacts with and Activates Toll-like Receptor 2 to Induce the Secretion of Interleukin-8 from Neutrophils and ATRA-Induced Differentiated HL-60 Cells” (International Journal of Molecular Sciences, 2021)", "binders": {"B1": {"name": "Helicobacter pylori neutrophil-activating protein (natural protein)", "chain": "MKTFEILKHLQADAIVLFMKVHNFHWNVKGTDFFNVHKATEEIYEEFADMFDDLAERIVQLGHHPLVTLSEAIKLTRVKEETKTSFHSKDIFKEILEDYKYLEKEFKELSNTAEKEGDKVTVTYADDQLAKLQKSIWMLQAHLA", "notes": "also called HP-NAP; NAP; source: E. coli BL21(DE3) carrying pET42a-NAP, purified (two gel-filtration steps: Sephacryl S-300, Superdex 200; endotoxin removed); copies: 12"}}, "target": "T1, Recombinant human TLR2 protein Glu21-Leu590, with a C-terminal 10-His tag (human, UniProt O60603 21-590)", "T1 construct": "Human Toll-like receptor 2, residues Glu21-Leu590; In the functional rows the TLR2 is the endogenous receptor on neutrophils or ATRA-differentiated HL-60 cells, not this soluble construct; also called TLR2-10xHis; Toll-like receptor 2; source: bought: R&D Systems (Cat. # 2616-TR-050); not shown: His10, C-terminal, kept", "T1 sequence (O60603 21-590)": "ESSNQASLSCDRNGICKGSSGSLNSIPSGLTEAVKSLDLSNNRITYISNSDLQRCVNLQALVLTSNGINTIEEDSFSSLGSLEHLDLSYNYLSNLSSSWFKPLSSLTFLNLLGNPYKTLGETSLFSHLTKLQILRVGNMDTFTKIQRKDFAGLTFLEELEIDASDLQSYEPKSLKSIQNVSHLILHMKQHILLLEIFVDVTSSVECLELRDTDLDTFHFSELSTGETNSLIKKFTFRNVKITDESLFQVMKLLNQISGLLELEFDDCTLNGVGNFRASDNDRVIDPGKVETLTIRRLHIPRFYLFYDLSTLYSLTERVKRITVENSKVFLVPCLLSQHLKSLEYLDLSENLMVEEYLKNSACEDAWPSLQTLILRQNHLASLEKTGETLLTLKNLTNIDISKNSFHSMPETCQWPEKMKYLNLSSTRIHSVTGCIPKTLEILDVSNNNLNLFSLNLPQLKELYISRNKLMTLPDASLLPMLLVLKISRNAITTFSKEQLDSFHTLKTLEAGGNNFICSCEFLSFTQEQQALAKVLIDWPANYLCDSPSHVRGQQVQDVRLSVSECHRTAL", "assay": "ELISA; Competitive ELISA: 0.625 μg TLR2-10xHis in 100 µL PBS-T pre-incubated with 0.78125-50 μg Pam3CSK4 or BSA (control), then added to wells coated with 0.05 µg HP-NAP, room temperature 2 h; detected with anti-6x His tag antibody", "details": "both partners purified", "data": [{"binder": "B1", "values": [{"measurement": "binding result", "result": "binds"}]}]}
